Tests used:
K11-linked di-ubiquitin [1] = molecular target: K11-linked di-ubiquitin (UniProt P0CG48); assay: 15N T1 relaxation
K11-linked di-ubiquitin [2] = molecular target: K11-linked di-ubiquitin (UniProt P0CG48); assay: NMR titration
[3] = molecular target: K48-linked di-ubiquitin (K48-Ub2) (Homo sapiens) (UniProt P0CG47); settings: cited from earlier work
[4] = molecular target: K63-linked di-ubiquitin (K63-Ub2) (Homo sapiens) (UniProt P0CG47); settings: cited from earlier work
monoUb (Homo sapiens) = monoUb (Homo sapiens) (UniProt P0CG47); settings: cited from earlier work

hHR23a UBA2 UBA2, sequence (P54725 315-361): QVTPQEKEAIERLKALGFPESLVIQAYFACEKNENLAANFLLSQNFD
Ub-associated domain (UBA) of Ubiquilin-1, sequence (Q9UMX0 546-586): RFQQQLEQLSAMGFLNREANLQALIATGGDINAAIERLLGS

Row | stoichiometry N (UBA molecules per K11-Ub2) (K11-linked di-ubiquitin [1]) | Kd, site on the distal Ub (two independent sites) (K11-linked di-ubiquitin [2]) [µM] | stoichiometry N (UQ1-UBA:K11-Ub2) (K11-linked di-ubiquitin [2]) | Substance | Kd [3] [µM] | Kd [4] [µM] | Kd (monoUb (Homo sapiens)) [µM]
1 | 2 | 2.9 | 2 | Ub-associated domain (UBA) of Ubiquilin-1 (from UniProt Q9UMX0 546-586) (domain or fragment) | – | – | –
2 | – | – | – | hHR23a UBA2 UBA2 (from UniProt P54725) | 18 | > 200 | 400

Source: publication PMC3802530
